Values of other authors in article PMC4394549.

Biological target: Arginyl-tRNA synthetase (Methanothermobacter thermautotrophicus) (UniProt O27496)
Sequence of UniProt O27496 (O27496 whole entry): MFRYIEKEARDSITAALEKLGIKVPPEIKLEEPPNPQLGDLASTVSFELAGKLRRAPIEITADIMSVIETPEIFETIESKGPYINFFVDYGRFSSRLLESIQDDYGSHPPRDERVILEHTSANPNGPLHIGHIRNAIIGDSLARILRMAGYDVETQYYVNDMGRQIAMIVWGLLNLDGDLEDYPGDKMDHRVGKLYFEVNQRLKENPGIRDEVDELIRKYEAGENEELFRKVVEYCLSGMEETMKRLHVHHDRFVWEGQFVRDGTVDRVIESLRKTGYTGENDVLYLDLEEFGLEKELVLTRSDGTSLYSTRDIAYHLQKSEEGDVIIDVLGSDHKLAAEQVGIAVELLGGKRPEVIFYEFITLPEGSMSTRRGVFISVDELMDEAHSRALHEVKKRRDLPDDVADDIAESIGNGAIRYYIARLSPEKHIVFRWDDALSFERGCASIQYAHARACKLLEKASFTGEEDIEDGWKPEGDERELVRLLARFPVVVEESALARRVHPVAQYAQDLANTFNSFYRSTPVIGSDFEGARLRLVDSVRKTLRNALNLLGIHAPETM

- Kd: 250 nM
Substance: Seryl-tRNA synthetase (from UniProt O27194)
